The subject of series [1] is HeLa Kyoto. As to the kind of experiment: thermal stability score vs G1/S (z-score of summed log2 fold changes over temperatures); higher = more thermally stable than in G1/S.
The test system of series [2] is HeLa Kyoto. As to the kind of experiment: solubility in G1/S (NP-40 vs SDS abundance) (log2 ratio); higher = more soluble. As to conditions: cell cycle stage: G1/S.
In series [3] the test system is HeLa Kyoto. As to the kind of experiment: solubility change mitosis vs G1/S (difference of NP-40 vs SDS log2 ratios) (log2 ratio difference); higher = more soluble in mitosis.
[4] abbreviates: cell cycle stage: early G1 (4.5 h after nocodazole release).

We go through eleven sequences from the supplement of paper PMC5998384.
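Throughout, for solubility change mitosis vs G1/S (difference of NP-40 vs SDS log2 ratios): synchronized HeLa Kyoto cells (double thymidine block for G1/S, nocodazole release for mitosis), protein amounts in NP-40 versus SDS lysates quantified by mass spectrometry, three biological replicates.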
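Throughout, for solubility in G1/S (NP-40 vs SDS abundance): HeLa Kyoto cells arrested at G1/S by double thymidine block, proteins quantified by TMT10plex mass spectrometry in mild NP-40 versus SDS extracts, three biological replicates.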
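Throughout, for thermal stability score vs G1/S (z-score of summed log2 fold changes over temperatures): synchronized HeLa Kyoto cells, proteins quantified by TMT10plex mass spectrometry, three biological replicates, mitosis taken 0.5 h after nocodazole release, G1/S directly after double thymidine block.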

As to “MAAVDSDVESLPRGGFRCCLCHVTTANRPSLDAHLGGRKHRHLVELRAARKAQGLRSVFVSGFPRDVDSAQLSEYFLAFGPVASVVMDKDKGVFAIVEMGDVGAREAVLSQSQHSLGGHRLRVRPREQKEFQSPASKSPKGAAPDSHQLAKALAEAADVGAQMIKLVGLRELSEAERQLRSLVVALMQEVFTEFFPGCVVHPFGSSINSFDVHGCDLDLFLDLGDLEEPQPVPKAPESPSLDSALASPLDPQALACTPASPPDSQPPASPQDSEALDFETPSSSLAPQTPDSALASETLASPQSLPPASPLLEDREEGDLGKASELAETPKEEKAEGAAMLELVGSILRGCVPGVYRVQTVPSARRPVVKFCHRPSGLHGDVSLSNRLALHNSRFLSLCSELDGRVRPLVYTLRCWAQGRGLSGSGPLLSNYALTLLVIYFLQTRDPPVLPTVSQLTQKAGEGEQVEVDGWDCSFPRDASRLEPSINVEPLSSLLAQFFSCVSCWDLRGSLLSLREGQALPVAGGLPSNLWEGLRLGPLNLQDPFDLSHNVAANVTSRVAGRLQNCCRAAANYCRSLQYQRRSSRGRDWGLLPLLQPSSPSSLLSATPIPLPLAPFTQLTAALVQVFREALGCHIEQATKRTRSEGGGTGESSQGGTSKRLKVDGQKNCCEEGKEEQQGCAGDGGEDRVEEMVIEVGEMVQDWAMQSPGQPGDLPLTTGKHGAPGEEGQPSHAALAERGPKGHEAAQEWSQGEAGKGASLPSSASWRCALWHRVWQGRRRARRRLQQQTKEGAGGGAGTRAGWLATEAQVTQELKGLSGGEERPETEPLLSFVASVSPADRMLTVTPLQDPQGLFPDLHHFLQVFLPQAIRHLK [TUT1]”, the figures for the thermal stability score in the series on HeLa Kyoto [1] (setting [4]) and in the series on HeLa Kyoto [1] (cell cycle stage: mitosis) were 0.3 and 1.52, respectively. In addition, the “solubility in G1/S (log2)” value in the series on HeLa Kyoto [2] is -0.00805. For the same sequence, the “solubility change mitosis (log2)” value in the series with HeLa Kyoto [3] stood at 0.00387.
In the same order, the values of “MAAVELEWIPETLYNTAISAVVDNYIRSRRDIRSLPENIQFDVYYKLYQQGRLCQLGSEFCELEVFAKVLRALDKRHLLHHCFQALMDHGVKVASVLAYSFSRRCSYIAESDAAVKEKAIQVGFVLGGFLSDAGWYSDAEKVFLSCLQLCTLHDEMLHWFRAVECCVRLLHVRNGNCKYHLGEETFKLAQTYMDKLSKHGQQANKAALYGELCALLFAKSHYDEAYKWCIEAMKEITAGLPVKVVVDVLRQASKACVVKREFKKAEQLIKHAVYLARDHFGSKHPKYSDTLLDYGFYLLNVDNICQSVAIYQAALDIRQSVFGGKNIHVATAHEDLAYSSYVHQYSSGKFDNALFHAERAIGIITHILPEDHLLLASSKRVKALILEEIAIDCHNKETEQRLLQEAHDLHLSSLQLAKKAFGEFNVQTAKHYGNLGRLYQSMRKFKEAEEMHIKAIQIKEQLLGQEDYEVALSVGHLASLYNYDMNQYENAEKLYLRSIAIGKKLFGEGYSGLEYDYRGLIKLYNSIGNYEKVFEYHNVLSNWNRLRDRQYSVTDALEDVSTSPQSTEEVVQSFLISQNVEGPSC [APPBP2]” are -0.105, -0.0209, -0.17 and -0.168.
In the same order, the values of “MAGAAEDARALFRAGVCAALEAWPALQIAVENGFGGVHSQEKAKWLGGAVEDYFMRNADLELDEVEDFLGELLTNEFDTVVEDGSLPQVSQQLQTMFHHFQRGDGAALREMASCITQRKCKVTATALKTARETDEDEDDVDSVEEMEVTATNDGAATDGVCPQPEPSDPDAQTIKEEDIVEDGWTIVRRKK [TSR2]” are -0.881, 0.659, 0.00907 and 0.0427.
Regarding “MAGAENWPGQQLELDEDEASCCRWGAQHAGARELAALYSPGKRLQEWCSVILCFSLIAHNLVHLLLLARWEDTPLVILGVVAGALIADFLSGLVHWGADTWGSVELPIVGKAFIRPFREHHIDPTAITRHDFIETNGDNCLVTLLPLLNMAYKFRTHSPEALEQLYPWECFVFCLIIFGTFTNQIHKWSHTYFGLPRWVTLLQDWHVILPRKHHRIHHVSPHETYFCITTGWLNYPLEKIGFWRRLEDLIQGLTGEKPRADDMKWAQKIK [TMEM189]”, the thermal stability score is -3.23 with HeLa Kyoto [1] (setting [4]) and -3.53 in the series on HeLa Kyoto [1] (cell cycle stage: mitosis). In addition, in the series with HeLa Kyoto [2], the “solubility in G1/S (log2)” value was -0.215. For the same sequence, the “solubility change mitosis (log2)” value in the series on HeLa Kyoto [3] was 0.0319.
In the same order, the values of “MAGSYPEGAPAVLADKRQQFGSRFLRDPARVFHHNAWDNVEWSEEQAAAAERKVQENSIQRVCQEKQVDYEINAHKYWNDFYKIHENGFFKDRHWLFTEFPELAPSQNQNHLKDWFLENKSEVPECRNNEDGPGLIMEEQHKCSSKSLEHKTQTLPVEENVTQKISDLEICADEFPGSSATYRILEVGCGVGNTVFPILQTNNDPGLFVYCCDFSSTAIELVQTNSEYDPSRCFAFVHDLCDEEKSYPVPKGSLDIIILIFVLSAIVPDKMQKAINRLSRLLKPGGMMLLRDYGRYDMAQLRFKKGQCLSGNFYVRGDGTRVYFFTQEELDTLFTTAGLEKVQNLVDRRLQVNRGKQLTMYRVWIQCKYCKPLLSSTS [METTL2A]” are 0.497, 0.608, 0.185 and 0.0978.
Turning to “MAKAAASSSLEDLDLSGEEVQRLTSAFQDPEFRRMFSQYAEELTDPENRRRYEAEITALERERGVEVRFVHPEPGHVLRTSLDGARRCFVNVCSNALVGAPSSRPGSGGDRGAAPGSHWSLPYSLAPGREYAGRSSSRYMVYDVVFHPDALALARRHEGFRQMLDATALEAVEKQFGVKLDRRNAKTLKAKYKGTPEAAVLRTPLPGVIPARPDGEPKGPLPDFPYPYQYPAAPGPRAPSPPEAALQPAPTEPRYSVVQRHHVDLQDYRCSRDSAPSPVPHELVITIELPLLRSAEQAALEVTRKLLCLDSRKPDYRLRLSLPYPVDDGRGKAQFNKARRQLVVTLPVVLPAARREPAVAVAAAAPEESADRSGTDGQACASAREGEAGPARSRAEDGGHDTCVAGAAGSGVTTLGDPEVAPPPAAAGEERVPKPGEQDLSRHAGSPPGSVEEPSPGGENSPGGGGSPCLSSRSLAWGSSAGRESARGDSSVETREESEGTGGQRSACAMGGPGTKSGEPLCPPLLCNQDKETLTLLIQVPRIQPQSLQGDLNPLWYKLRFSAQDLVYSFFLQFAPENKLSTTEPVISISSNNAVIELAKSPESHGHWREWYYGVNNDSLEERLFVNEENVNEFLEEVLSSPFKQSMSLTPPLIEVLQVTDNKIQINAKLQECSNSDQLQGKEERVNEESHLTEKEYIEHCNTPTTDSDSSIAVKALQIDSFGLVTCFQQESLDVSQMILGKSQQPESKMQSEFIKEKSATCSNEEKDNLNESVITEEKETDGDHLSSLLNKTTVHNIPGFDSIKETNMQDGSVQVIKDHVTNCAFSFQNSLLYDLD [DNAAF2]”, the results for the thermal stability score in the series on HeLa Kyoto [1] (setting [4]) and in the series with HeLa Kyoto [1] (cell cycle stage: mitosis) were -0.286 and -0.17, respectively. For the same sequence, in the series on HeLa Kyoto [2], the “solubility in G1/S (log2)” value is -0.0763. In addition, the “solubility change mitosis (log2)” value in the series with HeLa Kyoto [3] came to 0.11.
In the same order, the values of “MALAVLRVLEPFPTETPPLAVLLPPGGPWPAAELGLVLALRPAGESPAGPALLVAALEGPDAGTEEQGPGPPQLLVSRALLRLLALGSGAWVRARAVRRPPALGWALLGTSLGPGLGPRVGPLLVRRGETLPVPGPRVLETRPALQGLLGPGTRLAVTELRGRARLCPESGDSSRPPPPPVVSSFAVSGTVRRLQGVLGGTGDSLGVSRSCLRGLGLFQGEWVWVAQARESSNTSQPHLARVQVLEPRWDLSDRLGPGSGPLGEPLADGLALVPATLAFNLGCDPLEMGELRIQRYLEGSIAPEDKGSCSLLPGPPFARELHIEIVSSPHYSTNGNYDGVLYRHFQIPRVVQEGDVLCVPTIGQVEILEGSPEKLPRWREMFFKVKKTVGEAPDGPASAYLADTTHTSLYMVGSTLSPVPWLPSEESTLWSSLSPPGLEALVSELCAVLKPRLQPGGALLTGTSSVLLRGPPGCGKTTVVAAACSHLGLHLLKVPCSSLCAESSGAVETKLQAIFSRARRCRPAVLLLTAVDLLGRDRDGLGEDARVMAVLRHLLLNEDPLNSCPPLMVVATTSRAQDLPADVQTAFPHELEVPALSEGQRLSILRALTAHLPLGQEVNLAQLARRCAGFVVGDLYALLTHSSRAACTRIKNSGLAGGLTEEDEGELCAAGFPLLAEDFGQALEQLQTAHSQAVGAPKIPSVSWHDVGGLQEVKKEILETIQLPLEHPELLSLGLRRSGLLLHGPPGTGKTLLAKAVATECSLTFLSVKGPELINMYVGQSEENVREVFARARAAAPCIIFFDELDSLAPSRGRSGDSGGVMDRVVSQLLAELDGLHSTQDVFVIGATNRPDLLDPALLRPGRFDKLVFVGANEDRASQLRVLSAITRKFKLEPSVSLVNVLDCCPPQLTGADLYSLCSDAMTAALKRRVHDLEEGLEPGSSALMLTMEDLLQAAARLQPSVSEQELLRYKRIQRKFAAC [PEX6]” are -0.844, -0.711, 0.167 and -0.158.
In the same order, the values of “MALVSADSRIAELLTELHQLIKQTQEERSRSEHNLVNIQKTHERMQTENKISPYYRTKLRGLYTTAKADAEAECNILRKALDKIAEIKSLLEERRIAAKIAGLYNDSEPPRKTMRRGVLMTLLQQSAMTLPLWIGKPGDKPPPLCGAIPASGDYVARPGDKVAARVKAVDGDEQWILAEVVSYSHATNKYEVDDIDEEGKERHTLSRRRVIPLPQWKANPETDPEALFQKEQLVLALYPQTTCFYRALIHAPPQRPQDDYSVLFEDTSYADGYSPPLNVAQRYVVACKEPKKK [SGF29]” are -0.0915, -0.207, 0.435 and 0.314.
The like results for “MAMQMQLEANADTSVEEESFGPQPISRLEQCGINANDVKKLEEAGFHTVEAVAYAPKKELINIKGISEAKADKILAEAAKLVPMGFTTATEFHQRRSEIIQITTGSKELDKLLQGGIETGSITEMFGEFRTGKTQICHTLAVTCQLPIDRGGGEGKAMYIDTEGTFRPERLLAVAERYGLSGSDVLDNVAYARAFNTDHQTQLLYQASAMMVESRYALLIVDSATALYRTDYSGRGELSARQMHLARFLRMLLRLADEFGVAVVITNQVVAQVDGAAMFAADPKKPIGGNIIAHASTTRLYLRKGRGETRICKIYDSPCLPEAEAMFAINADGVGDAKD [RAD51]” were, in that order, -1.12, -1.89, -0.073 and -0.238.
On to “MANSMNGRNPGGRGGNPRKGRILGIIDAIQDAVGPPKQAAADRRTVEKTWKLMDKVVRLCQNPKLQLKNSPPYILDILPDTYQHLRLILSKYDDNQKLAQLSENEYFKIYIDSLMKKSKRAIRLFKEGKERMYEEQSQDRRNLTKLSLIFSHMLAEIKAIFPNGQFQGDNFRITKADAAEFWRKFFGDKTIVPWKVFRQCLHEVHQISSGLEAMALKSTIDLTCNDYISVFEFDIFTRLFQPWGSILRNWNFLAVTHPGYMAFLTYDEVKARLQKYSTKPGSYIFRLSCTRLGQWAIGYVTGDGNILQTIPHNKPLFQALIDGSREGFYLYPDGRSYNPDLTGLCEPTPHDHIKVTQEQYELYCEMGSTFQLCKICAENDKDVKIEPCGHLMCTSCLTAWQESDGQGCPFCRCEIKGTEPIIVDPFDPRDEGSRCCSIIDPFGMPMLDLDDDDDREESLMMNRLANVRKCTDRQNSPVTSPGSSPLAQRRKPQPDPLQIPHLSLPPVPPRLDLIQKGIVRSPCGSPTGSPKSSPCMVRKQDKPLPAPPPPLRDPPPPPPERPPPIPPDNRLSRHIHHVESVPSRDPPMPLEAWCPRDVFGTNQLVGCRLLGEGSPKPGITASSNVNGRHSRVGSDPVLMRKHRRHDLPLEGAKVFSNGHLGSEEYDVPPRLSPPPPVTTLLPSIKCTGPLANSLSEKTRDPVEEDDDEYKIPSSHPVSLNSQPSHCHNVKPPVRSCDNGHCMLNGTHGPSSEKKSNIPDLSIYLKGDVFDSASDPVPLPPARPPTRDNPKHGSSLNRTPSDYDLLIPPLGEDAFDALPPSLPPPPPPARHSLIEHSKPPGSSSRPSSGQDLFLLPSDPFVDLASGQVPLPPARRLPGENVKTNRTSQDYDQLPSCSDGSQAPARPPKPRPRRTAPEIHHRKPHGPEAALENVDAKIAKLMGEGYAFEEVKRALEIAQNNVEVARSILREFAFPPPVSPRLNL [CBLB]”, for which the thermal stability score in the series with HeLa Kyoto [1] (setting [4]) was -0.843; with HeLa Kyoto [1] (cell cycle stage: mitosis) it was -0.129. Besides, the “solubility in G1/S (log2)” value with HeLa Kyoto [2] is -0.447. In the series on HeLa Kyoto [3], the “solubility change mitosis (log2)” value worked out at 0.0975.
“MAPSLWKGLVGIGLFALAHAAFSAAQHRSYMRLTEKEDESLPIDIVLQTLLAFAVTCYGIVHIAGEFKDMDATSELKNKTFDTLRNHPSFYVFNHRGRVLFRPSDTANSSNQDALSSNTSLKLRKLESLRR [MMGT1]”: the thermal stability score in the series on HeLa Kyoto [1] (setting [4]) is -0.869; in the series on HeLa Kyoto [1] (cell cycle stage: mitosis), -1.57. The “solubility in G1/S (log2)” value in the series with HeLa Kyoto [2] is -0.125. Besides, the “solubility change mitosis (log2)” value with HeLa Kyoto [3] was -0.109.
